First the molecules themselves.
B1: RTP4 (parent)
chain: TYWEHWTSQGQVRMRLFGQRCQKC

The text below walks through data of the supplement of paper PMC10567573.
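Also: lentivirally expressed fusions sorted by FACS into six bins by GFP to DsRed ratio, PSI derived from sequencing read proportions per bin multiplied by bin number.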

Variants of B1 are the subject of the data set. The data set can be described thus: protein stability index of a GFP-peptide fusion (GPS, HEK-293T) (PSI 1-6); higher = more stable. Particulars: c terminus: a fixed tail appended.
TYWEHWTSQGQVRMRLFGQDCQKC: the protein stability index is 2.47.

Regarding TYWEHWTSQGQTRMRLFGQRCQKC, the protein stability index was 2.09.

Take TYWEHWTSQGQRRMRLFGQRCQKC: the protein stability index was 1.76.

On to TYWEHWTSQGQPRMRLFGQRCQKC, for which the protein stability index amounted to 1.98.

Consider TYWEHWTSQGQNRMRLFGQRCQKC, for which the protein stability index worked out at 1.65.

Turning to TYWEHWTSQGQERMRLFGQRCQKC, the protein stability index amounted to 2.19.

Regarding TYWEHWTSQGQHRMRLFGQRCQKC, the protein stability index was 2.21.

On to TYWEHWTSQGQQRMRLFGQRCQKC, for which the protein stability index amounted to 1.51.

As for TYWEHWTSQGQIRMRLFGQRCQKC, the protein stability index is 1.61.

Take TYWEHWTSQGQYRMRLFGQRCQKC: the protein stability index stood at 2.65.

Turning to TYWEHWTSQGQARMRLFGQRCQKC, the protein stability index came to 1.04.

For the variant TYWEHWTSQGQKRMRLFGQRCQKC, the protein stability index was 1.57.

On to TYWEHWTSQGQDRMRLFGQRCQKC, for which the protein stability index turned out to be 1.7.

Take TYWEHWTSQGQCRMRLFGQRCQKC: the protein stability index came to 2.42.

As for TYWEHWTSQGQWRMRLFGQRCQKC, the protein stability index was 3.46.

Regarding TYWEHWTSQWQVRMRLFGQRCQKC, the protein stability index amounted to 2.07.

TYWEHWTSQYQVRMRLFGQRCQKC: the protein stability index worked out at 1.92.

Take TYWEHWTSQGQVRMVLFGQRCQKC: the protein stability index amounted to 1.64.

Turning to TYWEHWTSQGQVRMGLFGQRCQKC, the protein stability index is 1.6.

With TYWEHWTSQGQVRMCLFGQRCQKC, the protein stability index came to 3.05.

For TYWEHWTSQGQVRMDLFGQRCQKC, the protein stability index stood at 2.71.

Consider TYWEHWTSQGQVRMHLFGQRCQKC, for which the protein stability index amounted to 1.85.

TYWEHWTSQGQVRMSLFGQRCQKC: the protein stability index came to 1.21.

TYWEHWTSQGQVRMNLFGQRCQKC: the protein stability index stood at 2.1.

For TYWEHWTSQGQVRMQLFGQRCQKC, the protein stability index is 1.86.

With TYWEHWTSQGQVRMPLFGQRCQKC, the protein stability index is 1.87.

Regarding TYWEHWTSQGQVRMALFGQRCQKC, the protein stability index came out at 2.06.

In the case of TYWEHWTSQGQVRMFLFGQRCQKC, the protein stability index came to 1.75.

With TYWEHWTSQGQVRMLLFGQRCQKC, the protein stability index is 1.97.

For TYWEHWTSQGQVRMKLFGQRCQKC, the protein stability index came to 2.31.

Regarding TYWEHWTSQGQVRMELFGQRCQKC, the protein stability index was determined as 2.07.

For TYWEHWTSQGQVRMILFGQRCQKC, the protein stability index amounted to 2.12.

Take TYWEHWTSQGQVRMMLFGQRCQKC: the protein stability index was 2.09.

Take TYWEHWTSQGQVRMTLFGQRCQKC: the protein stability index stood at 1.7.

For the variant TYWEHWTSQGDVRMRLFGQRCQKC, the protein stability index was 2.41.

For the variant TYWEHWTSQGAVRMRLFGQRCQKC, the protein stability index came to 1.84.

As for TYWEHWTSQGCVRMRLFGQRCQKC, the protein stability index was 3.14.

Regarding TYWEHWTSQGYVRMRLFGQRCQKC, the protein stability index was 1.58.

Consider TYWEHWTSQGSVRMRLFGQRCQKC, for which the protein stability index stood at 2.59.

For the variant TYWEHWTSQGGVRMRLFGQRCQKC, the protein stability index was determined as 2.64.

In the case of TYWEHWTSQGLVRMRLFGQRCQKC, the protein stability index is 2.02.

In the case of TYWEHWTSQGHVRMRLFGQRCQKC, the protein stability index came out at 1.65.

With TYWEHWTSQGKVRMRLFGQRCQKC, the protein stability index stood at 2.48.

TYWEHWTSQGIVRMRLFGQRCQKC: the protein stability index was determined as 2.31.

For the variant TYWEHWTSQGNVRMRLFGQRCQKC, the protein stability index turned out to be 2.01.

For the variant TYWEHWTSQGMVRMRLFGQRCQKC, the protein stability index was 2.4.

TYWEHWTSQGRVRMRLFGQRCQKC: the protein stability index came to 2.6.

Consider TYWEHWTSQGPVRMRLFGQRCQKC, for which the protein stability index is 2.14.

Regarding TYWEHWTSQGQVRMRLFHQRCQKC, the protein stability index is 2.23.

With TYWEHWTSQGQVRMRLFDQRCQKC, the protein stability index is 2.04.

As to TYWEHWTSQGQVRMRLFKQRCQKC, the protein stability index was 1.86.

TYWEHWTSQGQVRMRLFEQRCQKC: the protein stability index was determined as 2.24.

TYWEHWTSQGQVRMRLFWQRCQKC: the protein stability index was determined as 1.74.

As to TYWEHWTSQGQVRMRLFFQRCQKC, the protein stability index worked out at 1.87.

As to TYWEHWTSQGQVRMRLFCQRCQKC, the protein stability index stood at 2.03.

Turning to TYWEHWTSQGQVRMRLFTQRCQKC, the protein stability index came to 1.91.

Regarding TYWEHWTSQGQVRMRLFMQRCQKC, the protein stability index worked out at 1.36.

For the variant TYWEHWTSQGQVRMRLFNQRCQKC, the protein stability index came to 2.14.

As to TYWEHWTSQGQVRMRLFYQRCQKC, the protein stability index is 2.41.

In the case of TYWEHWTSQGQVRMRLFSQRCQKC, the protein stability index is 1.46.

In the case of TYWEHWTSQGQVRMRLFQQRCQKC, the protein stability index is 1.4.

With TYWEHWTSQGQVRMRLFIQRCQKC, the protein stability index worked out at 2.39.

As for TYWEHWTSQGQVRMRLFPQRCQKC, the protein stability index was determined as 1.81.

Turning to TYWEHWTSQGQVRMRLFRQRCQKC, the protein stability index is 2.02.

Regarding TYWEHWTSQGQVRMRLFAQRCQKC, the protein stability index was 1.96.

Regarding TYWEHWTSQGQVHMRLFGQRCQKC, the protein stability index was 2.4.

Turning to TYWEHWTSQGQVVMRLFGQRCQKC, the protein stability index worked out at 1.65.

On to TYWEHWTSQGQVPMRLFGQRCQKC, for which the protein stability index is 1.92.

As for TYWEHWTSQGQVGMRLFGQRCQKC, the protein stability index came out at 1.65.

On to TYWEHWTSQGQVSMRLFGQRCQKC, for which the protein stability index came to 1.59.

With TYWEHWTSQGQVLMRLFGQRCQKC, the protein stability index amounted to 1.69.

As to TYWEHWTSQGQVDMRLFGQRCQKC, the protein stability index was found to be 2.04.

Turning to TYWEHWTSQGQVNMRLFGQRCQKC, the protein stability index was found to be 1.54.

Regarding TYWEHWTSQGQVCMRLFGQRCQKC, the protein stability index amounted to 2.78.

As for TYWEHWTSQGQVEMRLFGQRCQKC, the protein stability index was determined as 1.74.

Consider TYWEHWTSQGQVIMRLFGQRCQKC, for which the protein stability index is 2.76.

TYWEHWTSQGQVWMRLFGQRCQKC: the protein stability index amounted to 2.11.

On to TYWEHWTSQGQVRMRVFGQRCQKC, for which the protein stability index is 1.81.

Take TYWEHWTSQGQVRMRFFGQRCQKC: the protein stability index was found to be 2.22.

With TYWEHWTSQGQVRMRPFGQRCQKC, the protein stability index worked out at 2.13.

As to TYWEHWTSQGQVRMRWFGQRCQKC, the protein stability index is 1.62.

As for TYWEHWTSQGQVRMRDFGQRCQKC, the protein stability index was 2.85.

For the variant TYWEHWTSQGQVRMRYFGQRCQKC, the protein stability index is 2.61.

Take TYWEHWTSQGQVRMRCFGQRCQKC: the protein stability index came to 2.99.

In the case of TYWEHWTSQGQVRMRGFGQRCQKC, the protein stability index was 2.13.

In the case of TYWEHWTSQGQVRMRHFGQRCQKC, the protein stability index was determined as 2.34.

Consider TYWEHWTSQGQVRMRAFGQRCQKC, for which the protein stability index is 1.6.

TYWEHWTSQGQVRMRIFGQRCQKC: the protein stability index turned out to be 1.62.

As for TYWEHWTSQGQVRMRKFGQRCQKC, the protein stability index is 1.25.

With TYWEHWTSQGQVRMRTFGQRCQKC, the protein stability index was 1.14.

Consider TYWEHWTSQGQVRMRSFGQRCQKC, for which the protein stability index turned out to be 1.75.

As to TYWEHWTSQGQVRMRQFGQRCQKC, the protein stability index worked out at 1.79.

Turning to TYWEHWTSQGQVRMRRFGQRCQKC, the protein stability index was 1.91.

As to TYWEHWTSQGQVRMRNFGQRCQKC, the protein stability index came out at 2.43.
